Laboratory results taken from PMC10980163, “Integrin-linked kinase-frizzled 7 interaction maintains cancer stem cells to drive platinum resistance in ovarian cancer” (Research Square, 2024).

Molecular target: T1, recombinant human full length Fzd7 (human, UniProt O75084 33-574)
T1 construct: also called full-length recombinant Fzd7
Assay: co-IP; recombinant human full-length Fzd7 and ILK mixed 1:1 in lysis buffer, incubated overnight at 4 °C with antibody (anti-Fzd7 in Fig. 4D); Western blot for ILK and Fzd7
Details: both partners purified

B1: recombinant human full-length ILK (enzyme, UniProt Q13418 1-452, looked up)
chain: MDDIFTQCREGNAVAVRLWLDNTENDLNQGDDHGFSPLHWACREGRSAVVEMLIMRGARINVMNRGDDTPLHLAASHGHRDIVQKLLQYKADINAVNEHGNVPLHYACFWGQDQVAEDLVANGALVSICNKYGEMPVDKAKAPLRELLRERAEKMGQNLNRIPYKDTFWKGTTRTRPRNGTLNKHSGIDFKQLNFLTKLNENHSGELWKGRWQGNDIVVKVLKVRDWSTRKSRDFNEECPRLRIFSHPNVLPVLGACQSPPAPHPTLITHWMPYGSLYNVLHEGTNFVVDQSQAVKFALDMARGMAFLHTLEPLIPRHALNSRSVMIDEDMTARISMADVKFSFQCPGRMYAPAWVAPEALQKKPEDTNRRSADMWSFAVLLWELVTREVPFADLSNMEIGMKVALEGLRPTIPPGISPHVCKLMKICMNEDPAKRPKFDMIVPILEKMQDK
notes: Integrin-linked kinase (ILK), human, recombinant, full length; also called full-length recombinant ILK
B1: binds.
